Molecular target: Lz-linker-DHFR 106-187 (yeast) (UniProt P03069)
Experiment: cell-based or functional assay

Lz-linker-DHFR 1-105 (from UniProt P03069 253-274)
cell survival in DHFR selection media lacking glycine, hypoxanthine and thymidine (-GHT): < 90 % viability

— patent publication US7691605
